Source: the supplement of paper PMC7125110
± gives the standard error. Variants at the floor of the assay were thinned out.

B1: glmS ribozyme (parent)
chain: AUAAAAGCGCCAGAACUACAGAAAUGUAGUUGACGAGGAGGAGGUUUAUCGAAUUUUCGGCGGAUGCCUCCAAA

Assays:
Settings in all cases: with glucosamine-6-phosphate
glucosamine-6-phosphate [1] = variants of: B1; assay: self-cleavage kobs at 640 uM GlcN6P; higher = faster cleavage; RNA array
How it was run: (§1)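 E. coli RNA polymerase transcribed barcoded ribozyme variants in situ on sequenced MiSeq chips, which were tracked via a hybridised Cy3 probe at 37 °C. Tiles were imaged over ~14 h after glucosamine-6-phosphate (40 μM to 10 mM) in HEPES/KCl/Mg(OAc)2 buffer was flowed in. Normalised per-tile medians were fit to one- or two-exponential decays for kobs, and kcat and KM came from weighted Michaelis–Menten fits.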

glucosamine-6-phosphate [2] = variants of: B1; assay: self-cleavage kobs at 2500 uM GlcN6P; higher = faster cleavage; RNA array
How it was run: as §1

glucosamine-6-phosphate [3] = variants of: B1; assay: self-cleavage kobs at 10000 uM GlcN6P; higher = faster cleavage; RNA array
How it was run: as §1

G9A G35U U47A C70U
self-cleavage kobs at 640 uM GlcN6P (glucosamine-6-phosphate [1]): < 1e-05 s⁻¹
self-cleavage kobs at 2500 uM GlcN6P (glucosamine-6-phosphate [2]): < 1e-05 s⁻¹

A33C U47G
self-cleavage kobs at 640 uM GlcN6P (glucosamine-6-phosphate [1]): 8.08e-05 ± 3e-05 s⁻¹
self-cleavage kobs at 10000 uM GlcN6P (glucosamine-6-phosphate [3]): 6.4e-05 ± 1.3e-05 s⁻¹

A14U A15C A33C C61G U65G
self-cleavage kobs at 640 uM GlcN6P (glucosamine-6-phosphate [1]): < 1e-05 s⁻¹
self-cleavage kobs at 2500 uM GlcN6P (glucosamine-6-phosphate [2]): < 1e-05 s⁻¹

C10U U47C U55G
self-cleavage kobs at 640 uM GlcN6P (glucosamine-6-phosphate [1]): < 1e-05 s⁻¹

U31G A33C C50U U56C A64G
self-cleavage kobs at 640 uM GlcN6P (glucosamine-6-phosphate [1]): < 1e-05 s⁻¹
self-cleavage kobs at 2500 uM GlcN6P (glucosamine-6-phosphate [2]): < 1e-05 s⁻¹

G13A C50U G62A
self-cleavage kobs at 640 uM GlcN6P (glucosamine-6-phosphate [1]): < 1e-05 s⁻¹

A14C U65A C70U
self-cleavage kobs at 640 uM GlcN6P (glucosamine-6-phosphate [1]): 0.000125 ± 3.2e-05 s⁻¹

C11U A15C U31C
self-cleavage kobs at 640 uM GlcN6P (glucosamine-6-phosphate [1]): 6.01e-05 ± 2.1e-05 s⁻¹
self-cleavage kobs at 2500 uM GlcN6P (glucosamine-6-phosphate [2]): 0.000159 ± 5e-05 s⁻¹

C8G U57G C70U
self-cleavage kobs at 640 uM GlcN6P (glucosamine-6-phosphate [1]): < 1e-05 s⁻¹
self-cleavage kobs at 2500 uM GlcN6P (glucosamine-6-phosphate [2]): < 1e-05 s⁻¹

A15G U47G U55G C70A
self-cleavage kobs at 640 uM GlcN6P (glucosamine-6-phosphate [1]): 0.000102 ± 1.7e-05 s⁻¹

G32C G37U G51C
self-cleavage kobs at 640 uM GlcN6P (glucosamine-6-phosphate [1]): < 1e-05 s⁻¹

C16U A33G C50U U54G
self-cleavage kobs at 640 uM GlcN6P (glucosamine-6-phosphate [1]): < 1e-05 s⁻¹
self-cleavage kobs at 2500 uM GlcN6P (glucosamine-6-phosphate [2]): < 1e-05 s⁻¹
self-cleavage kobs at 10000 uM GlcN6P (glucosamine-6-phosphate [3]): < 1e-05 s⁻¹

G29A C34U G44C A53U C68U
self-cleavage kobs at 640 uM GlcN6P (glucosamine-6-phosphate [1]): < 1e-05 s⁻¹

C10G A12U U46A
self-cleavage kobs at 640 uM GlcN6P (glucosamine-6-phosphate [1]): < 1e-05 s⁻¹

G7U A53U U65G
self-cleavage kobs at 640 uM GlcN6P (glucosamine-6-phosphate [1]): < 1e-05 s⁻¹
self-cleavage kobs at 2500 uM GlcN6P (glucosamine-6-phosphate [2]): < 1e-05 s⁻¹

C8U U54C U55G
self-cleavage kobs at 640 uM GlcN6P (glucosamine-6-phosphate [1]): < 1e-05 s⁻¹

G9U A15C
self-cleavage kobs at 640 uM GlcN6P (glucosamine-6-phosphate [1]): < 1e-05 s⁻¹
self-cleavage kobs at 10000 uM GlcN6P (glucosamine-6-phosphate [3]): < 1e-05 s⁻¹

G32U G41A C68A
self-cleavage kobs at 640 uM GlcN6P (glucosamine-6-phosphate [1]): < 1e-05 s⁻¹

G41C G51U U55G
self-cleavage kobs at 640 uM GlcN6P (glucosamine-6-phosphate [1]): < 1e-05 s⁻¹
self-cleavage kobs at 2500 uM GlcN6P (glucosamine-6-phosphate [2]): < 1e-05 s⁻¹

A33U U54A G60C
self-cleavage kobs at 640 uM GlcN6P (glucosamine-6-phosphate [1]): < 1e-05 s⁻¹
self-cleavage kobs at 2500 uM GlcN6P (glucosamine-6-phosphate [2]): < 1e-05 s⁻¹

C10U C16U G63U
self-cleavage kobs at 640 uM GlcN6P (glucosamine-6-phosphate [1]): < 1e-05 s⁻¹
self-cleavage kobs at 10000 uM GlcN6P (glucosamine-6-phosphate [3]): < 1e-05 s⁻¹

G29C G37U U46A
self-cleavage kobs at 640 uM GlcN6P (glucosamine-6-phosphate [1]): < 1e-05 s⁻¹
self-cleavage kobs at 2500 uM GlcN6P (glucosamine-6-phosphate [2]): < 1e-05 s⁻¹
self-cleavage kobs at 10000 uM GlcN6P (glucosamine-6-phosphate [3]): < 1e-05 s⁻¹

C10A A12C G66U
self-cleavage kobs at 640 uM GlcN6P (glucosamine-6-phosphate [1]): < 1e-05 s⁻¹
self-cleavage kobs at 2500 uM GlcN6P (glucosamine-6-phosphate [2]): < 1e-05 s⁻¹

G13U G41U A52C
self-cleavage kobs at 640 uM GlcN6P (glucosamine-6-phosphate [1]): < 1e-05 s⁻¹

G9A G51U A52C
self-cleavage kobs at 640 uM GlcN6P (glucosamine-6-phosphate [1]): < 1e-05 s⁻¹
self-cleavage kobs at 2500 uM GlcN6P (glucosamine-6-phosphate [2]): < 1e-05 s⁻¹

C8U G13A U46A G51C G59A
self-cleavage kobs at 640 uM GlcN6P (glucosamine-6-phosphate [1]): < 1e-05 s⁻¹

U45C A48U G60A
self-cleavage kobs at 640 uM GlcN6P (glucosamine-6-phosphate [1]): < 1e-05 s⁻¹
self-cleavage kobs at 2500 uM GlcN6P (glucosamine-6-phosphate [2]): < 1e-05 s⁻¹

A42C A53C G60A
self-cleavage kobs at 640 uM GlcN6P (glucosamine-6-phosphate [1]): < 1e-05 s⁻¹
self-cleavage kobs at 2500 uM GlcN6P (glucosamine-6-phosphate [2]): < 1e-05 s⁻¹

G7U A53U A64G
self-cleavage kobs at 640 uM GlcN6P (glucosamine-6-phosphate [1]): < 1e-05 s⁻¹
self-cleavage kobs at 2500 uM GlcN6P (glucosamine-6-phosphate [2]): < 1e-05 s⁻¹

U49C U55A
self-cleavage kobs at 640 uM GlcN6P (glucosamine-6-phosphate [1]): < 1e-05 s⁻¹
self-cleavage kobs at 2500 uM GlcN6P (glucosamine-6-phosphate [2]): < 1e-05 s⁻¹
